Measurements: patent publication US20070087001A1 (CENTER FOR MOLECULAR MEDICINE AND IMMUNOLOGY, published 2007)
Ends that are not written are not given here.

How the values were obtained:
[1] = molecular target: T1, Recombinant human placenta growth factor-2 (PlGF-2) (human) (UniProt P49763); assay: cell-based or functional assay
T1 sequence (looked up): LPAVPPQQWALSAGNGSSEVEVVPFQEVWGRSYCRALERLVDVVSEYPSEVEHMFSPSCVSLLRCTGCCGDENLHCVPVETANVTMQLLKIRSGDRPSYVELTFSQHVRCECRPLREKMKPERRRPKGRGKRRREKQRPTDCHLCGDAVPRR

[2] = molecular target: T2, Recombinant human Flt-1 fusion protein (human, UniProt P17948 27-756); assay: ELISA-based binding assay
T2 construct: Bought fusion protein coated on plates at 10 µg/ml; also called VEGFR1; VEGF receptor I

[3] = molecular target: T3, Recombinant human VEGF 165 (human, UniProt P15692-4 27-191); assay: ELISA, FLAG-tagged free peptide on VEGF165-coated wells, anti-FLAG detection
T3 construct: Bought protein

[4] = molecular target: T4, Recombinant human placenta growth factor-2 (PlGF-2) (human, UniProt P49763-3 19-170, limits assumed); assay: ELISA, free FLAG-tagged peptide on PlGF-coated wells
T4 construct: Bought protein; also called rhuPlGF
T4 sequence (looked up): T1 sequence (looked up)

[5] = molecular target: T2, Recombinant human Flt-1 fusion protein; assay: ELISA, free FLAG-tagged peptide on Flt-1-coated wells
[6] = molecular target: T3, Recombinant human VEGF 165; assay: ELISA-based binding assay
[7] = molecular target: T4, Recombinant human placenta growth …; assay: cell-based or functional assay
[8] = molecular target: T4, Recombinant human placenta growth …; assay: cell-based or functional assay; remark: listed apart in the source
[9] = molecular target: T1, Recombinant human placenta growth factor-2 (PlGF-2) (human); assay: phage ELISA on PlGF-coated plates, anti-M13-HRP detection; phage library background 0.003

T2 sequence (P17948 27-756): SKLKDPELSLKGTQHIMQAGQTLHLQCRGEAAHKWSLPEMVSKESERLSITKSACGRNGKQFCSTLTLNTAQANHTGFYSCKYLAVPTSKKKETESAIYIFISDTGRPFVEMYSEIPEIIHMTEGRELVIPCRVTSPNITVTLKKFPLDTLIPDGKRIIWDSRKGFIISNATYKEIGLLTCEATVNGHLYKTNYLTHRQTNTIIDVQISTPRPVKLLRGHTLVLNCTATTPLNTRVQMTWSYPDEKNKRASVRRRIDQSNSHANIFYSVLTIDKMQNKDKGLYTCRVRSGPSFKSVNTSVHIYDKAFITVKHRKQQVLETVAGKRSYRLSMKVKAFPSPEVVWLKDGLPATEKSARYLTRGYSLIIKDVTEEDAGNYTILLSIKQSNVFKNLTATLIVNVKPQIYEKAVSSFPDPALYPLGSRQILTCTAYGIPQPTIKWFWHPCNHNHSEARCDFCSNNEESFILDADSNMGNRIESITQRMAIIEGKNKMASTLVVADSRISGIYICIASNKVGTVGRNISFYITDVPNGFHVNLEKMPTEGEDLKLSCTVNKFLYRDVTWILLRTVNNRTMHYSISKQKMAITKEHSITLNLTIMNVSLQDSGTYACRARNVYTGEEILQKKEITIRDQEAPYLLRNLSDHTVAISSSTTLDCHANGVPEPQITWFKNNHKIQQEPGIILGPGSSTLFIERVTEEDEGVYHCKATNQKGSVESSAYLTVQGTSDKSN
T3 sequence (P15692 other isoform, or with tags, fused parts or gaps limits assumed): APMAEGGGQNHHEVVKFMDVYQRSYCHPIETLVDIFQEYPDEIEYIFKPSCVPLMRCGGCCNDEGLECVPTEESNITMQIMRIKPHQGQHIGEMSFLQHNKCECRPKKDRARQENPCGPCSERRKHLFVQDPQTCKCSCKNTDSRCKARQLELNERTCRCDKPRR

Human recombinant soluble Flt-1 (sFlt-1) (from UniProt P17948 27-756) (receptor)
Block of the stimulatory effect of PlGF on motility, MCF-7 [1]: 67% | Block of the stimulatory effect of PlGF on motility, MDA-MB-231 [1]: 55% | Migrating cells (wound-healing assay, MCF-7, PlGF 2 nM + Flt-1 2 nM) (cells/100x field) [1]: 10.4 | Migrating cells (wound-healing assay, MDA-MB-231, PlGF 2 nM + Flt-1 2 nM) (cells/100x field) [1]: 19.1 | Migrating cells (wound-healing assay, MDA-MB-468, PlGF 2 nM + Flt-1 2 nM) (cells/100x field) [1]: 7.8 | Relative activity (wound-healing assay, MCF-7) (relative to PlGF-only = 100) [1]: 47 | Relative activity (wound-healing assay, MDA-MB-231) (relative to PlGF-only = 100) [1]: 45 | Relative activity (wound-healing assay, MDA-MB-468) (relative to PlGF-only = 100) [1]: 53

SHRYRLAIQLHASDSSSSCVDYKDDDDK (peptide, not shown: small tags and cut ends, also: linker between peptide and FLAG epitope, sequence not given here, detected by probing for FLAG) [Peptide BP1 (Binding Peptide 1) synthesized with a linker and a C-terminal FLAG epitope]
fold over background [2]: 10 fold over background | A490 [3]: 0.299 A490

QEAFNRLTSRMHDYKDDDDK (peptide, not shown: small tags and cut ends, also: linker between peptide and FLAG epitope, sequence not given here) [Peptide BP3 synthesized with a linker and a C-terminal FLAG epitope]
binding result [4]: no binding (tested: 50 µM) | binding result [5]: no binding

RMPYSEHSAPLGDYKDDDDK (peptide, not shown: small tags and cut ends, also: linker between peptide and FLAG epitope, sequence not given here) [Peptide BP4 synthesized with a linker and a C-terminal FLAG epitope]
binding result [4]: no binding (tested: 50 µM) | binding result [5]: no binding

SAAYALAIQLAASASSSSCV [Control peptide CPA (BP1 with A substituted for the H, R and D residues)]
binding result [6]: binds | Relative activity (wound-healing assay, MDA-MB-231) [7]: 106 relative to PlGF-only = 100 | Relative activity (wound-healing assay, MDA-MB-468) [7]: 147 relative to PlGF-only = 100 | Average fold-change in invading cells vs untreated (MCF-7, PlGF 0.2 nM + CPA 2 µg/ml) [8]: 1 fold vs untreated | Average fold-change in invading cells vs untreated (MDA-MB-231, PlGF 0.2 nM + CPA 2 µg/ml) [8]: 4.9 fold vs untreated | Average fold-change in invading cells vs untreated (MDA-MB-468, PlGF 0.2 nM + CPA 2 µg/ml) [8]: 1.2 fold vs untreated

SHRYRLAIQLHASDSSSSCV [Binding Peptide 1 (BP1), synthetic peptide]
Relative activity (wound-healing assay, MCF-7) [7]: 45 relative to PlGF-only = 100 | Relative activity (wound-healing assay, MDA-MB-231) [7]: 32 relative to PlGF-only = 100 | Relative activity (wound-healing assay, MDA-MB-468) [7]: 97 relative to PlGF-only = 100 | Average fold-change in invading cells vs untreated (MCF-7, PlGF 0.2 nM + BP1 2 µg/ml) [8]: 0.3 fold vs untreated | Average fold-change in invading cells vs untreated (MDA-MB-231, PlGF 0.2 nM + BP1 2 µg/ml) [8]: 1.3 fold vs untreated | Average fold-change in invading cells vs untreated (MDA-MB-468, PlGF 0.2 nM + BP1 2 µg/ml) [8]: 0.6 fold vs untreated

B1: Phage BP1 (BP1 peptide displayed on M13 phage) (peptide, not shown: large carriers; small tags and cut ends)
peptide: SHRYRLAIQLHASDSSSSCV
modifications: also: displayed on M13 phage, fused to pIII coat protein, spacer and fusion end not given here
absorbance (410 nm) [9]: 0.024 A410
